These results are taken from publication PMC11122685, “An interaction network in the polymerase active site is a prerequisite for Watson-Crick base pairing in Pol γ”.

In this series the target is Pol gamma A R853A exo-;Pol gamma B deltaI4 (human;human?, UniProt P54098;Q9UHN1 1-1239;1-485, D198A;E200A;R853A|del136-182). The series can be described thus: X-ray crystal structure (3.4 A); dCTP (2 mM), 10 mM CaCl2; ternary complex, dCTP not paired with template dG; Crystal: 63.5 uM protein, 114.3 uM DNA, 10 mM CaCl2, 2 mM dCTP; well 100 mM MES pH 6.0, 150 mM NaCl, 10 mM CaCl2, 50 mM BME, 3% PEG-8000, 1-8% sucrose, 2% Jeffa. The following applies: protein: recombinant;recombinant; (Ni-NTA purified); copies: 1;2; 5' overhang 4 nt (template strand), recessed primer 3' end.
Chain of Pol gamma A R853A exo-;Pol gamma B deltaI4 (P54098 whole entry D198A/E200A/R853A, chain 1 of 2): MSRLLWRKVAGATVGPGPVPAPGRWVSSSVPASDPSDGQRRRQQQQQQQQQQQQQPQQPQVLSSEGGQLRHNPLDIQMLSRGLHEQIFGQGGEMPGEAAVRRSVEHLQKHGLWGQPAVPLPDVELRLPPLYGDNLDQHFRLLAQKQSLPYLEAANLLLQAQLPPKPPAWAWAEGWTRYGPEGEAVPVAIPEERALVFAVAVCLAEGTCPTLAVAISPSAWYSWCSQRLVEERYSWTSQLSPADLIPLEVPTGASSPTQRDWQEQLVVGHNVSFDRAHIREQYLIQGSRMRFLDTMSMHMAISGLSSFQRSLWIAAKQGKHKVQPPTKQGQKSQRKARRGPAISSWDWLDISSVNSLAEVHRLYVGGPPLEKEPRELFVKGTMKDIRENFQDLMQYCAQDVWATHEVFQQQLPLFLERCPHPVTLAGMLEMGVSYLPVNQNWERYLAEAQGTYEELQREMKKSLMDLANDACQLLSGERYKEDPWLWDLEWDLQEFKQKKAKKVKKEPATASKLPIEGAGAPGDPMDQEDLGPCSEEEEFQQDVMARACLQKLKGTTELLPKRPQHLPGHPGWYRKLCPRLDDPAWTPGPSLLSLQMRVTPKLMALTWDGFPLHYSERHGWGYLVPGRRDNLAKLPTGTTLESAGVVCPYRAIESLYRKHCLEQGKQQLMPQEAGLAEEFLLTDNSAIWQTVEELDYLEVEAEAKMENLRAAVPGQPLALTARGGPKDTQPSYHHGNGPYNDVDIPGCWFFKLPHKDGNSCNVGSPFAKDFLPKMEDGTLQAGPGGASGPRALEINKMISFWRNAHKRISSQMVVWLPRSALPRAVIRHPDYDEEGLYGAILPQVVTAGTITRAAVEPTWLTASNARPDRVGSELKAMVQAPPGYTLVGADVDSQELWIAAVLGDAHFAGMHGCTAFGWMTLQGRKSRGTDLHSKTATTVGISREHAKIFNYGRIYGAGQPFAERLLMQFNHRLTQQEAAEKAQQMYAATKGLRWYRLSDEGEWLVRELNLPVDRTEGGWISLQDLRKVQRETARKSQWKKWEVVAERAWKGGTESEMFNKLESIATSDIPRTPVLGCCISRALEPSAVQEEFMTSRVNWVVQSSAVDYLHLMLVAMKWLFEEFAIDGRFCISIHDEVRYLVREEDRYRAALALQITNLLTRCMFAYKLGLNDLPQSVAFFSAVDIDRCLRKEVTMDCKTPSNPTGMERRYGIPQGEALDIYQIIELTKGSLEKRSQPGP
Chain of Pol gamma A R853A exo-;Pol gamma B deltaI4 (Q9UHN1 other isoform, or with tags, fused parts or gaps D198A;E200A;R853A|del136-182 | R853A R853A, chain 2 of 2): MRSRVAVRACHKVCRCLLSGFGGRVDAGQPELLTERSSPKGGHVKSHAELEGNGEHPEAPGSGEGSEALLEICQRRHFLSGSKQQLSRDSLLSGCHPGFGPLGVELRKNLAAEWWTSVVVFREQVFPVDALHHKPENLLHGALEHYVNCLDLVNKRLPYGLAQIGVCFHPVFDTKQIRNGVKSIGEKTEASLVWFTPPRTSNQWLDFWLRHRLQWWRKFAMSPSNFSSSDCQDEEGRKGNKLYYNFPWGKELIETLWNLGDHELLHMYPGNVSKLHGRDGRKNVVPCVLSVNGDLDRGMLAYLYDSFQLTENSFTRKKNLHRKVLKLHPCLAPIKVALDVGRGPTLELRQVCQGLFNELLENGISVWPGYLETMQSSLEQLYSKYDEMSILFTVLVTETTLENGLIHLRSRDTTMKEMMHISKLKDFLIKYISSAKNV

B1: 24-nt/28-nt primer/template, ddC-terminated primer (crystal) (dsDNA)
DNA 1: CGAAAACGACGGCCAGTGCCATAC
DNA 2: CGAGGTATGGCACTGGCCGTCGTTTTCG
modifications: 2',3'-dideoxyC at primer 3' end (position 24 of strand 1)
As to B1, the binding result is “binds”.
